Consider four molecules from patent publication US20170145113A1 (Genentech, published 2017).

Assay [1] deals with h15H6.v1 HC-A71R variant. Put plainly: phage competition ELISA: phage-displayed Fab preincubated with soluble murine HtrA1, unbound phage captured on coated huHtrA1-PD-His, OD450.
Assay [2] concerns the target h15H6.v1 LC-S49Y variant. The assay is described as above.
The target in assay [3] is T1, LA-pep1, peptide corresponding to residues 190-201 of the human HtrA1 sequence (human).
T1 construct: Synthetic peptide; numbering of the human HtrA1 precursor protein; also called LA-pepl; HtrA1 Loop A (LA) peptide
T1 peptide: RKLPFSKREVPV
In words: SPR, peptide and Fab.

Assay [4] deals with T2, His-tagged human HtrA1 protease domain (human, UniProt Q92743 161-367).
T2 construct: His-tagged protease domain; also called huHtrA1-PD-His; huHtrA1-PD
T2 sequence (Q92743 other isoform, or with tags, fused parts or gaps limits assumed): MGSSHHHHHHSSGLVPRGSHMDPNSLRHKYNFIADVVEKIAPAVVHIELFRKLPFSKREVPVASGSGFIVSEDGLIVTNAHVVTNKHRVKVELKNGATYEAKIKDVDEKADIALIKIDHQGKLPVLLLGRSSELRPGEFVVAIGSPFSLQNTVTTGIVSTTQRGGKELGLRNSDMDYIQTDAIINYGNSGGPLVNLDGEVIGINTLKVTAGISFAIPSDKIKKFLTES
In words: SPR (BIACORE), Fab.

The target of assay [5] is T2, His-tagged human HtrA1 protease domain. Put plainly: cell-based or functional assay.
The target in assay [6] is T3, LA-pep2.
T3 construct: The changed residue is printed as an image; A is put in by the column 'AA change' (R1A); also called R1A
T3 peptide: AKLPFSKREVPV
In words: SPR, peptide and Fab.

Assay [7] concerns the target T4, LA-pep5.
T4 construct: The changed residue is printed as an image; A is put in by the column 'AA change' (F5A); also called F5A
T4 peptide: RKLPASKREVPV
In words: SPR, peptide and Fab.

For assay [8], the target named is T5, LA-pep4.
T5 construct: The changed residue is printed as an image; A is put in by the column 'AA change' (P4A); also called P4A
T5 peptide: RKLAFSKREVPV
In words: SPR, peptide and Fab.

Assay [9] concerns the target T6, LA-pep3.
T6 construct: The changed residue is printed as an image; A is put in by the column 'AA change' (L3A); also called L3A
T6 peptide: RKAPFSKREVPV
In words: SPR, peptide and Fab.

The target in assay [10] is T7, LA-pep6.
T7 construct: The changed residue is printed as an image; A is put in by the column 'AA change' (R8A); also called R8A
T7 peptide: RKLPFSKAEVPV
In words: SPR, peptide and Fab.

In assay [11] the target is endogenous HtrA1 from media of HtrA1-secreting human C32 melanoma cells (human, UniProt Q92743 23-480). Put plainly: cell-based or functional assay.
Chain of endogenous HtrA1 from media of HtrA1-secreting human C32 melanoma cells (Q92743 23-480 limits assumed): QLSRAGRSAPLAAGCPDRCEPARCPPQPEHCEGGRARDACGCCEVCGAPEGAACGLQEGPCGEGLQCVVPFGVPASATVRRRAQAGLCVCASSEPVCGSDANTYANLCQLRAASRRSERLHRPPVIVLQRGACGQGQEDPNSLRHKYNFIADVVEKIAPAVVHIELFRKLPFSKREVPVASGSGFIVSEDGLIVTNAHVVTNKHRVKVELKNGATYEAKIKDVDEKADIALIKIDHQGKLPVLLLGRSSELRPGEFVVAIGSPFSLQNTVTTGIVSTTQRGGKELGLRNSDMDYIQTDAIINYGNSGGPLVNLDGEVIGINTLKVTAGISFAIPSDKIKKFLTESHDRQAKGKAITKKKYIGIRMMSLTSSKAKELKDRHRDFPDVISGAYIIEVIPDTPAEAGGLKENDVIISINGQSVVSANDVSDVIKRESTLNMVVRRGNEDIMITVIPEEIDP
Assay [12] deals with T2, His-tagged human HtrA1 protease domain. Put plainly: cell-based or functional assay. This is another data set of the same source.
For assay [13] the target is unchanged. Put plainly: BIACORE T200 SPR; Fab analyte over huHtrA1-PD-His captured by anti-His antibody.
For assay [14] the target is unchanged. In words: BIACORE SPR analysis, Fab format. Here is the method:
To determine the binding affinity of selected Fab variants for HtrA1, SPR measurement with a BIACORE™ T200 instrument was performed. Briefly, a series S sensor chip CM5 was activated with 1-EDC and NHS reagents according to the supplier's instructions, and anti-His antibody was coupled to achieve 200-300 response units (RU), then following by blocking un-reacted groups with 1 M ethanolamine. For kinetics measurements, approximately 5 nM of huHtrA1-PD-His was first injected at 10 μl/min flow rate to capture approximately 100 RU at 2 different flow cells (FC), except for FC1 (which served as a reference). Next, 5-fold serial dilutions of Fab in HBS-P buffer (0.01M HEPES pH 7.4, 0.15M NaCl, 0.005% surfactant P20) from low (0.8 nM) to high (50 nM) were injected (flow rate: 30 μl/min). The binding responses on HtrA1 were corrected by subtracting of RU from a blank flow cell. The sensorgram was recorded and subject to reference and buffer subtraction before evaluating by BIACORE® T200 Evaluation Software (version 2.0). Association rates (kₒₙ) and dissociation rates (koff) were calculated using a simple one-to-one Langmuir binding model. The equilibrium dissociation constant (KD) was calculated as the ratio of koff/kₒₙ.

For assay [15], the target named is T8, murine HtrA4 protease domain (murine, UniProt A2RT60 160-371, limits assumed).
T8 construct: domain: PD (protease domain); also called muHtrA4-PD; murine HtrA4-PD
T8 sequence (looked up): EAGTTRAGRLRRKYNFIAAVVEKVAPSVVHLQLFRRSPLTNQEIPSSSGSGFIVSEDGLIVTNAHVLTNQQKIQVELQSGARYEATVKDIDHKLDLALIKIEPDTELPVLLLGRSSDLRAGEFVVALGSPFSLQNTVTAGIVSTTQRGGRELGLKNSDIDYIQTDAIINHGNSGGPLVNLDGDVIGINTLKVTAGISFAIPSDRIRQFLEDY
Put plainly: ELISA, hybridoma clone.

For assay [16], the target named is T9, murine HtrA3 protease domain (murine, UniProt Q9D236 135-350, limits assumed).
T9 construct: domain: PD (protease domain); also called muHtrA3-PD; murine HtrA3-PD
T9 sequence (looked up): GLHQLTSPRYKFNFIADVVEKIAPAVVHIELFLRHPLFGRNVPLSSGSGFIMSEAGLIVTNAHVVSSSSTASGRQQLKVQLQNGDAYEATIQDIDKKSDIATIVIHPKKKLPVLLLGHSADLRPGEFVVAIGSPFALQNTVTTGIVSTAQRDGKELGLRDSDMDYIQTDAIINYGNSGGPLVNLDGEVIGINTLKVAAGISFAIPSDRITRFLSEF
In words: ELISA, hybridoma clone.

Assay [17] concerns the target T10, His-tagged recombinant murine HtrA1 protease domain (murine, UniProt Q9R118 156-367).
T10 construct: His-tagged protease domain; also called muHtrA1-PD-His; muHtrA1-PD
In words: ELISA, antigen coated on plate, hybridoma clone. Here is the method:
(§1) ELISA was performed according to a standard protocol. Briefly, 96-well microliter ELISA plates (Greiner, Germany) were coated with 100 μl/well muHtrA1-PD-His or huHtrA1-PD-His (SEQ ID NO: 154) at 2 μg/ml in 0.05 M carbonate buffer (pH 9.6) at 4° C. overnight. After washing three times with wash buffer (0.05% TWEEN®20 in PBS, Sigma), plates were blocked with 100 μl ELISA assay diluents with BSA. 100 μl of cultured supernatants or diluted purified monoclonal antibodies (mAbs) were added and incubated for 1 h at room temperature. The plates were washed three times and incubated with HRP-conjugated goat anti-mouse IgG Fc for 1 h. After washing three times, bound enzyme was detected by addition of 100 μl/well of the TMB substrate (BioFX Laboratories) for 5 min. The reactions were stopped by adding 100 μl/well of stop reagent (BioFX Laboratories), followed by detection of color at absorbance 650 nm (A_{650 nm}).

Assay [18] deals with T2, His-tagged human HtrA1 protease domain. In words: ELISA, antigen coated on plate, hybridoma clone. Here is the method:
as §1

A value given as a limit tells only on which side of the number the result lay.

Take “His-tagged recombinant murine HtrA1 protease domain (from UniProt Q9R118 156-367) (enzyme)”: the IC50 (read off the curve) in assay [1] is 0.1 nM; in assay [2], 0.6 nM.

B1: h15H6.v4 Fab (Fab, V domains shown)
VH: EVQLVQSGAEVKKPGASVKVSCKASGYKFTDSEMHWVRQAPGQGLEWIGGVDPETEGAAYNQKFKGRATITRDTSTSTAYLELSSLRSEDTAVYYCTRGYDYDYALDYWGQGTLVTVSS
VL: DIQMTQSPSSLSASVGDRVTITCRASSSVEFIHWYQQKPGKAPKPLISATSNLASGVPSRFSGSGSGTDFTLTISSLQPEDFATYYCQQWSSAPWTFGQGTKVEIK
notes: Tested as Fab; also called APEG.LC3.HC3; Fab15H6.v4
As to B1, binding in assay [3] was put at a Kd of 0.4 nM. Also, the “fold improvement in affinity against YW505.94a.28 Fab” value in assay [4] was roughly 30 fold. In assay [5], the “IC50 FRET (H2-Opt substrate cleavage)” value was 0.3 nM, the “IC90 FRET (H2-Opt substrate cleavage)” value is 1.19 nM and the “Max inhibition (FRET H2-Opt assay)” value came to 100. In assay [6], the Kd was 321 nM and the “affinity loss (KD mutant/KD wild-type)” value came out at 810 fold. Also, in assay [7], the dissociation constant (Kd) is 4.53 nM and the “affinity loss (KD mutant/KD wild-type)” value is 11 fold. Further, in assay [8], the “affinity loss (KD mutant/KD wild-type)” value is greater than 2500 fold and the binding result is “no binding (tested: no binding detected up to 1 µM)”. In [9], the “affinity loss (KD mutant/KD wild-type)” value is greater than 2500 fold and the binding result was “no binding (tested: no binding detected up to 1 µM)”. In addition, in [10], the “affinity loss (KD mutant/KD wild-type)” value is greater than 2500 fold and the binding result is reported as “no binding (tested: no binding detected up to 1 µM)”. The “IC50, endogenous HtrA1 activity assay (H2-Opt)” value in assay [11] is roughly 1.12 nM. Moreover, in assay [12], the “IC50, FRET-based H2-Opt blocking assay” value is roughly 0.386 nM and the “IC50, mass spectrometry-based activity assay (cleavage of intact α-casein)” value was roughly 45 nM. Also, in assay [13], binding was characterised by a dissociation constant (Kd) of 0.106 nM, the koff was determined as 3.29e-05 s⁻¹ and the kon amounted to 309000 M⁻¹ s⁻¹. In assay [14], this molecule returned a Kd of 0.106 nM, a koff of 3.29e-05 s⁻¹ and a kon of 309000 M⁻¹ s⁻¹.

B2: anti-HtrA1 hybridoma antibody clone 3A5 (antibody, V domains shown)
VH: DVHLVESGGGLVRPGGSRKLSCEASGFTFSSFGMHWVRQAPEKGLEWVAFITSDSSTIYYADTVKGRFTISRDNPKNTLFLQMTSLRSEDTAMYYCTRSGDDYLDYWGQGTTLTVSS
VL: DIVLTQSPASLAVSLGQRATISCRASQSVSTSSSSYMHWYQQKPGQPPKVFIKYASNLESGVPARFSGSGSGTDFTLSIHPVEEEDTATYYCQHSWEIPFTFGGGTKLEIK
As for B2, the binding result is listed as “no binding” in assay [15], “no binding” in assay [16], “binds” in assay [17] and “binds” in assay [18].

B3: anti-HtrA1 hybridoma antibody clone 20E2 (antibody, V domains shown)
VH: EVKLVESGGGLVQPGGSLKLSCAASGFTFSSYIMSWVRQTPEKRLEWVAYISNGGGTTYYPDTIKGRFTISRDNAKNTLYLQMNTLKSEDTAIYFCARQNFRSDGSSMDYWGQGTSVTVSS
VL: NIVLTQSPASLAVSLGQRATISCRASESVDTSGRSFMHWYQQKPGQPPRLLIYLASKLESGVPARFSGSGSRTDFTLTIDPVEADDAATYYCQQNNEDPYTFGGGTNLEIK
With B3, the binding result in assay [15] is “no binding”; in [16] it was “no binding”; in [17], “binds”; in assay [18], “binds”.
